Data: patent US20230265179A1 (TWIST BIOSCIENCE, published 2023)
Substitutions are numbered along the chain they refer to.

T1: IL1RL1 (UniProt Q01638 19-328, limits assumed)
T1 construct: SPR analyte
T1 sequence (looked up): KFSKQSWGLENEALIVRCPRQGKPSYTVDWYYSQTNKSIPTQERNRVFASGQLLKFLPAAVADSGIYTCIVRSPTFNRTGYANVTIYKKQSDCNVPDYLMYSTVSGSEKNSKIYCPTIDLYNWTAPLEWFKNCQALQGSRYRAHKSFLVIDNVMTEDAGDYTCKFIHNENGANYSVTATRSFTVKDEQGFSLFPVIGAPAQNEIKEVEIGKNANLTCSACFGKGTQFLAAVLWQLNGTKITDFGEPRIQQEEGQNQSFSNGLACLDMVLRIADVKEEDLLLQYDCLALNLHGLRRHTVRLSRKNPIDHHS

T2: IL1RL1 over-expressed on Expi293 cells (UniProt Q01638 19-556, limits assumed)
T2 construct: whole, on cells; Target of the flow cytometry MFI ratio (over-expressing cells over parent cells); also called cytokine over-expressing Expi293 cells
T2 sequence (looked up): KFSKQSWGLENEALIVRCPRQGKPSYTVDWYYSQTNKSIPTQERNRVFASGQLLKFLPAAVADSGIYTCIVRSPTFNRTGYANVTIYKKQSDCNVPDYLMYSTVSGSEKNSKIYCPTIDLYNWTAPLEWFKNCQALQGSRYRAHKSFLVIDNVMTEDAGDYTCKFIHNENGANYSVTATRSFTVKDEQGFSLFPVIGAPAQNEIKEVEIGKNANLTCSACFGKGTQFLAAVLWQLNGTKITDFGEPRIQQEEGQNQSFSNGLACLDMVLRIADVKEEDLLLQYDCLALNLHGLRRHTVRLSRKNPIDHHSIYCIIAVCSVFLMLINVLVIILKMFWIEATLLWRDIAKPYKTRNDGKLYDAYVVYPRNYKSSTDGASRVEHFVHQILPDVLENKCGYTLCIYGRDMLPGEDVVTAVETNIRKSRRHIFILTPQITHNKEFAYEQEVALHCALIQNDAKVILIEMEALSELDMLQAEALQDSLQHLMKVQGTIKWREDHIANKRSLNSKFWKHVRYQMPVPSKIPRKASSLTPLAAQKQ

B1: IL1RL1-46 (Fc fusion, not shown: a dimerising Fc or GST)
VHH: EVQLVESGGGLVQPGGSLRLSCAASGFTFSDIAMGWFRQAPGKEREFVAAINWSGGSTKYADSVKGRFTISADNSKNTAYLQMNSLKPEDTAVYYCAYSGIGTDWGQGTLVTVSS
notes: VHH-Fc on IgG2 Fc
B2: IL1RL1-40 (Fc fusion, not shown: a dimerising Fc or GST)
VHH: EVQLVESGGGLVQPGGSLRLSCAASGRTFSDYVMGWFRQAPGKEREIVAAIAWTGTTDYADSVKGRFTISADNSKNTAYLQMNSLKPEDTAVYYCAARIRGKVTVDNFDYAWGQGTLVTVSS
notes: VHH-Fc on IgG2 Fc
B3: IL1RL1-20 (Fc fusion, not shown: a dimerising Fc or GST)
VHH: EVQLVESGGGLVQPGGSLRLSCAASGFSLDDRVMGWFRQAPGKEREFVAGITLGGSTSYADSVKGRFTISADNSKNTAYLQMNSLKPEDTAVYYCAAAPVPWGTRPSLLTYDWGQGTLVTVSS
notes: VHH-Fc on IgG2 Fc
B4: IL1RL1-22 (Fc fusion, not shown: a dimerising Fc or GST)
VHH: EVQLVESGGGLVQPGGSLRLSCAASGRTSNIYAMGWFRQAPGKEREWVASISTSGSTITPYADSVKGRFTISADNSKNTAYLQMNSLKPEDTAVYYCAIAHGSSTYNWGQGTLVTVSS
B5: IL1RL1-63 (Fc fusion, not shown: a dimerising Fc or GST)
VHH: EVQLVESGGGLVQPGGSLRLSCAASGRTLSSIYAMGWFRQAPGKEREGVAAIYSGGITTYADSVKGRFTISADNSKNTAYLQMNSLKPEDTAVYYCAAFDGYSGSDWGQGTLVTVSS
B6: IL1RL1-49 (Fc fusion, not shown: a dimerising Fc or GST)
VHH: EVQLVESGGGLVQPGGSLRLSCAASGRTVTMGWFRQAPGKEREFVAGINWESGSTDYADSVKGRFTISADNSKNTAYLQMNSLKPEDTAVYYCAALALGTDQSSTFDWGQGTLVTVSS
notes: VHH-Fc on IgG2 Fc
B7: IL1RL1-47 (Fc fusion, not shown: a dimerising Fc or GST)
VHH: EVQLVESGGGLVQPGGSLRLSCAASGRTFSMGWFRQAPGKEREWVASISTSGSTITPYADSVKGRFTISADNSKNTAYLQMNSLKPEDTAVYYCAAQGSLYDDYDGLPIKYDWGQGTLVTVSS
notes: VHH-Fc on IgG2 Fc
B8: IL1RL1-21 (Fc fusion, not shown: a dimerising Fc or GST)
VHH: EVQLVESGGGLVQPGGSLRLSCAASGTITSAVFMGWFRQAPGKEREFVAGIIGSGGATYYADSVKGRFTISADNSKNTAYLQMNSLKPEDTAVYYCAASRYARERDVHAYDWGQGTLVTVSS
notes: VHH-Fc on IgG2 Fc
B9: IL1RL1-24 (Fc fusion, not shown: a dimerising Fc or GST)
VHH: EVQLVESGGGLVQPGGSLRLSCAASGGTAYAMGWFRQAPGKEREWVASISTSGSTITPYADSVKGRFTISADNSKNTAYLQMNSLKPEDTAVYYCAAASRSGSGYDWGQGTLVTVSS
notes: VHH-Fc on IgG2 Fc
B10: IL1RL1-59 (Fc fusion, not shown: a dimerising Fc or GST)
VHH: B9 VHH with A98N, S99V, R100G, S101V, G102T, S103G, G104S, D106E
notes: VHH-Fc on IgG2 Fc
B11: IL1RL1-54 (Fc fusion, not shown: a dimerising Fc or GST)
VHH: EVQLVESGGGLVQPGGSLRLSCAASGNIPPINAMGWFRQAPGKEREWVASISTSGSTITPYADSVKGRFTISADNSKNTAYLQMNSLKPEDTAVYYCAARSGWSGQYDWGQGTLVTVSS
notes: VHH-Fc on IgG2 Fc
B12: IL1RL1-26 (Fc fusion, not shown: a dimerising Fc or GST)
VHH: EVQLVESGGGLVQPGGSLRLSCAASGLTTVYTMGWFRQAPGKERESVASISWTGGTTYYADSVKGRFTISADNSKNTAYLQMNSLKPEDTAVYYCAAIAHEEGVYRWDWGQGTLVTVSS
notes: VHH-Fc on IgG2 Fc
B13: IL1RL1-23 (Fc fusion, not shown: a dimerising Fc or GST)
VHH: EVQLVESGGGLVQPGGSLRLSCAASGRTFSTASMGWFRQAPGKEREWVASISTSGSTITPYADSVKGRFTISADNSKNTAYLQMNSLKPEDTAVYYCAVVDLLRGKLWGQGTLVTVSS
notes: VHH-Fc on IgG2 Fc
B14: IL1RL1-25 (Fc fusion, not shown: a dimerising Fc or GST)
VHH: EVQLVESGGGLVQPGGSLRLSCAASGGTFNGRAMGWFRQAPGKEREGVATINSGGGTNYADSVKGRFTISADNSKNTAYLQMNSLKPEDTAVYYCALRRLSPPPLLDWGQGTLVTVSS
notes: VHH-Fc on IgG2 Fc
B15: IL1RL1-19 (Fc fusion, not shown: a dimerising Fc or GST)
VHH: EVQLVESGGGLVQPGGSLRLSCAASGRTDSTASMGWFRQAPGKEREEVAAISWSGGRTYYADSVKGRFTISADNSKNTAYLQMNSLKPEDTAVYYCARLAFQGNTVFDLWGQGTLVTVSS
notes: VHH-Fc on IgG2 Fc
B16: IL1RL1-92 (Fc fusion, not shown: a dimerising Fc or GST)
VHH: B15 VHH with D29H
notes: VHH-Fc on IgG2 Fc
B17: IL1RL1-44 (Fc fusion, not shown: a dimerising Fc or GST)
VHH: EVQLVESGGGLVQPGGSLRLSCAASGDYYAMGWFRQAPGKEREWVSSIGIAGTPTFYADSVKGRFTISADNSKNTAYLQMNSLKPEDTAVYYCAANVGVTGSYEWGQGTLVTVSS
notes: VHH-Fc on IgG2 Fc
B18: IL1RL1-17 (Fc fusion, not shown: a dimerising Fc or GST)
VHH: EVQLVESGGGLVQPGGSLRLSCAASGRDLDYYAMGWFRQAPGKEREWVSSIGIAGTPTFYADSVKGRFTISADNSKNTAYLQMNSLKPEDTAVYYCAVVDLLRGKLWGQGTLVTVSS
notes: VHH-Fc on IgG2 Fc
B19: IL1RL1-45 (Fc fusion, not shown: a dimerising Fc or GST)
VHH: EVQLVESGGGLVQPGGSLRLSCAASGRTLSSYTMGWFRQAPGKEREFVAGIWSGGYTHYADSVKGRFTISADNSKNTAYLQMNSLKPEDTAVYYCAAVSSNSETFDWGQGTLVTVSS
notes: VHH-Fc on IgG2 Fc
B20: IL1RL1-83 (Fc fusion, not shown: a dimerising Fc or GST)
VHH: B19 VHH with T28S, L29I, S31D
notes: VHH-Fc on IgG2 Fc
B21: IL1RL1-57 (Fc fusion, not shown: a dimerising Fc or GST)
VHH: EVQLVESGGGLVQPGGSLRLSCAASGDIGSINSMGWFRQAPGKEREFLASVSWGFGSTYYADSVKGRFTISADNSKNTAYLQMNSLKPEDTAVYYCAVNRLLYYSSGYYQTSVDWGQGTLVTVSS
notes: VHH-Fc on IgG2 Fc
B22: IL1RL1-39 (Fc fusion, not shown: a dimerising Fc or GST)
VHH: EVQLVESGGGLVQPGGSLRLSCAASGGTFSVYAMGWFRQAPGKEREAVASISTSGGSTYYADSVKGRFTISADNSKNTAYLQMNSLKPEDTAVYYCAIGGTLYDRRRFEWGQGTLVTVSS
notes: VHH-Fc on IgG2 Fc
B23: IL1RL1-27 (Fc fusion, not shown: a dimerising Fc or GST)
VHH: EVQLVESGGGLVQPGGSLRLSCAASGGTISTYAIGWFRQAPGKEREGVAAISPGNNTHYADSVKGRFTISADNSKNTAYLQMNSLKPEDTAVYYCAARPVRVDDISLPVGFDWGQGTLVTVSS
notes: VHH-Fc on IgG2 Fc
B24: IL1RL1-16 (Fc fusion, not shown: a dimerising Fc or GST)
VHH: EVQLVESGGGLVQPGGSLRLSCAASGFSLDYYGMGWFRQAPGKEREGVATINWSGATSYADSVKGRFTISADNSKNTAYLQMNSLKPEDTAVYYCAIPGVWGQGTLVTVSS
notes: VHH-Fc on IgG2 Fc

Target: T1, IL1RL1
Assay: SPR (Carterra LSA), antibody amine-coupled, 1:1 model;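 further: HC30M sensor chip at 25 °C in HBS-TE, analyte at rising concentrations in buffer containing 0.5 mg/mL BSA, 5 min association then 15 min dissociation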
Description: SPR experiments were performed on a Carterra LSA SPR biosensor equipped with a HC30M chip at 25° C. in HBS-TE. Antibodies were diluted to 10 μg/mL and amine-coupled to the sensor chip by EDC/NHS activation, followed by ethanolamine HCl quenching. Increasing concentrations of analyte were flowed over the sensor chip in HBS-TE with 0.5 mg/mL BSA with 5-minute association and 15-minute dissociation. Following each injection cycle the surface was regenerated with 2× 30-second injections of IgG elution buffer (Thermo). Data were analyzed in Carterra's Kinetics Tool software with 1:1 binding model.

Row | Binder | Kd [nM] | koff [s⁻¹] | kon [M⁻¹ s⁻¹]
1 | B1 | 3.06 | 0.000553 | 181000
2 | B2 | 7.31 | 0.00116 | 159000
3 | B3 | 0.302 | 2.92e-05 | 96600
4 | B4 | 1.36 | 0.000243 | 179000
5 | B5 | 0.153 | 3.16e-05 | 207000
6 | B6 | 2.42 | 0.000673 | 277000
7 | B7 | 4.73 | 0.00031 | 65600
8 | B8 | 0.409 | 5.04e-05 | 123000
9 | B9 | 1.62 | 0.000232 | 143000
10 | B10 | ≤ 0.0748 | ≤ 1e-05 | 134000
11 | B11 | 0.516 | 9.06e-05 | 176000
12 | B12 | 3.12 | 0.000618 | 198000
13 | B13 | ≤ 0.188 | ≤ 1e-05 | 53100
14 | B14 | 1.47 | 0.000392 | 267000
15 | B15 | 0.104 | 1.29e-05 | 123000
16 | B16 | 4.4 | 0.000619 | 141000
17 | B17 | ≤ 0.016 | ≤ 1e-05 | 626000
18 | B18 | 2.76 | 0.000588 | 213000
19 | B19 | 1.19 | 0.000326 | 275000
20 | B20 | 1.2 | 0.00016 | 134000
21 | B21 | 1.73 | 0.000364 | 211000
22 | B22 | 0.688 | 5.5e-05 | 80000
23 | B23 | 3.7 | 0.000372 | 101000
24 | B24 | 5.71 | 0.0011 | 193000

Target: T2, IL1RL1 over-expressed on Expi293 cells
Assay: flow cytometry, 100 nM antibody, over-expressing Expi293 / parent cells
Description: All incubations and washes were in buffer containing PBS+1% BSA. MFI Ratio is defined by the mean fluorescence intensity (MFI) of the cytokine over-expressing Expi293 cell over the Expi293 parent cell. […] EC50 was calculated in GraphPad Prism.

Row | Binder | 100 nM FACS (MFI Ratio) [MFI ratio]
25 | B1 | 300
26 | B2 | 415
27 | B3 | 396
28 | B4 | 294
29 | B5 | 451
30 | B6 | 248
31 | B7 | 467
32 | B8 | 521
33 | B9 | 438
34 | B10 | 374
35 | B11 | 500
36 | B12 | 310
37 | B13 | 526
38 | B14 | 69.5
39 | B15 | 486
40 | B16 | 484
41 | B17 | 448
42 | B18 | 415
43 | B19 | 704
44 | B20 | 628
45 | B21 | 282
46 | B22 | 267
47 | B23 | 450
48 | B24 | 478
